Assay results from US20260275311, “CRISPR NUCLEASE POLYPEPTIDES AND GENE EDITING SYSTEMS COMPRISING SUCH” (ARBOR BIOTECHNOLOGIES, INC., published 2026).

Legend:
Nuclease M S95R S95R = system: T1, Nuclease M S95R S95R; assay: cell_activity; details: PAM TTAAA; HEK293T
T1 sequence: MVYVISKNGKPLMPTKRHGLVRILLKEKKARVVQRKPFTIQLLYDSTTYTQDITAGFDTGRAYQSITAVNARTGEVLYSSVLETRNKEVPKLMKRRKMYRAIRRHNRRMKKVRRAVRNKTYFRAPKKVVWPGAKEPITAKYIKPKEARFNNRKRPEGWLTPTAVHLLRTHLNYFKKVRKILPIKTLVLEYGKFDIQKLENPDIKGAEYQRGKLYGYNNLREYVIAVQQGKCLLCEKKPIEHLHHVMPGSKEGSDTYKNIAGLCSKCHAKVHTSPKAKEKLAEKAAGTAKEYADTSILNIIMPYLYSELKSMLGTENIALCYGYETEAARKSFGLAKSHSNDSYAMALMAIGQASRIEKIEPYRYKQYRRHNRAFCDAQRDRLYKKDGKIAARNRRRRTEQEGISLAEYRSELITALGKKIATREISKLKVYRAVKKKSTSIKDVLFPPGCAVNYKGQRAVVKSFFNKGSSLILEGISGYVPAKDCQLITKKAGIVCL

Nuclease K = target: T2, Nuclease K; assay: cell_activity; PAM NGG (GGG); HEK293T; details: tags: N-terminal SV40 NLS, C-terminal nucleoplasmin NLS
T2 chain: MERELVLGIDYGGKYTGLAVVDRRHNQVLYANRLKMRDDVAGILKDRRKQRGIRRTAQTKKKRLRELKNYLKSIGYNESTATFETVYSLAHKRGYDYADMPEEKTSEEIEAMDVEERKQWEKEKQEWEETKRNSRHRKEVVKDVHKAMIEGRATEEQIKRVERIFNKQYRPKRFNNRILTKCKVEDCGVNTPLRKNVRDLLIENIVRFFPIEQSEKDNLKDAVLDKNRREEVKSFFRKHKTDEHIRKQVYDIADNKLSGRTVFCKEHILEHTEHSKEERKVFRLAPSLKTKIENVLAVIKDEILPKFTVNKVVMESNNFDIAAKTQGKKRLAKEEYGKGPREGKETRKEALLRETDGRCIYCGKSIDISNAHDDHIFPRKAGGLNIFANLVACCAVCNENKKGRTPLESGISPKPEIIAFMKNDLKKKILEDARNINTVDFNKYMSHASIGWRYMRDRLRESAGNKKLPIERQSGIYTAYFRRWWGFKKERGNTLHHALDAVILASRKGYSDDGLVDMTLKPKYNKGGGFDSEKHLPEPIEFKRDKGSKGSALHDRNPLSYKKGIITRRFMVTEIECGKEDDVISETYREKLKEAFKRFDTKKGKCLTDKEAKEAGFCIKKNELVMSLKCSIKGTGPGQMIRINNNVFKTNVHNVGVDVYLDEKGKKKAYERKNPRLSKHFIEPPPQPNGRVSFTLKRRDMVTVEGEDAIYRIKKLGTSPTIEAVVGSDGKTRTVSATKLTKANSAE

## GAGCCUGGUCCAUGGAGAGUGUCAACUACCCCCGUCUAAAGACGGAGGCAUGAGGUUUCGUAACCAAGUGUUGUACCUGCGGGUACAGUAGUUGAACAGGCGGCGAUGCGGCUGGGCACUCCAGGAUGCCACUCCCAGUCCCGGACACUGCCGACGAGCCGCAUCAAGCCGGGGGAGACCAACCGGCUAACGAUAGCCGAGCAAUUACCUAAAAAGAGGUGCAAAGGAAAUGGUAU / GAGCCTGGTCCATGGAGAGT / ACTCTCCATGGACCAGGCTC [Nuclease M VEGFA-T5 guide ; Nuclease M VEGFA-T5 target]
Nuclease M S95R S95R
  binding signal (fold vs Nuclease M): 2.05

B1: Nuclease K EMX1-T7 guide ; EMX1-T7 target (ssRNA ; dsDNA)
RNA: CUUUAGCAAGGGACUAUUCAGUUACAGUUAAGGCUCUGAAAAGAGCCUUAAUUGUAAAACGCCUAUACAGUGAAGGGAUAUACGCUUGGGUUUGUCCAGCCUGAGCCUCUAUGCCAGAAAUGGCGCCUUCAUCGUGGGUUAGGACAUUUAAAUUUAAAAACUAUUCAGCACUGUUUGCUCUUGUCAGCUUGGUGGCAGA
DNA 1: CTTTAGCAAGGGACTATTCA
DNA 2: TGAATAGTCCCTTGCTAAAG
Nuclease K
  activity: 0.011 indel ratio
